Assay results as given in the supplement of paper PMC6755084.

B1: minF1; a variant is named by its letters at N, in order (parent)
chain: GAGACCGCAACTGAAAAGTTGTTNNNNAANNNNGGNTNNATTTCTGCACGTAGAAGCAAAAGGC
B2: minF1; the commonest letter at each place (parent)
chain: GAGACCGCAACTGAAAAGTTGTTATCAGAAATGGATGGGTTGAATTTCTGCACGTAGAAGCAAAAGGC

Variants of: B1
Test: fraction ligated after 30 min (ligated reads / total reads); higher = more ligase activity
Conditions: with F1*subA RNA substrate (template-directed ligation), 42 °C
Method: (§1)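 Chip-synthesised pool of minF1 ligase ribozyme variants (single and double substitutions, single to quadruple deletions, bulge and P2 designed variants) was transcribed with T7 and reacted as a pool with excess substrate F1*subA for 30 min at 42 C in 50 mM EPPS pH 8.5, 25 mM MgCl2. Ligated and unligated RNAs were separated by PAGE, barcoded by RT and deep sequenced; fraction ligated = ligated reads / total reads, relative activity = FL / FL of wild-type minF1 (0.76); sequencing FL correlated with PAGE (R2 = 0.98). Sequences are the DNA template of the ribozyme.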

Variant | fraction ligated
ATGAGGATGTG A29T | 0.00971
ATGAGGATTGA | 0.00566
ATGAGGATTGA A29T | 0.00582
ATGAGGTGTGA | 0.00168
ATGAGGTGTGA A29T | 0.00679
ATGATATGTGA | 0.00429
ATGATGAGTGA | 0.00204
ATGATGATGTA | 0.00247
ATGATGATGTG | 0.00639
ATGATGATTGA | 0.00379
ATGATGGAGTA | 0.00203
ATGATGGAGTA G34T | 0.00469
ATGATGGAGTG | 0.00409
ATGATGGAGTG G34T | 0.011
ATGATGGAGTT G34T T37G | 0.00184
ATGATGGAGTT G34T T37G A40G | 0.0011
ATGATGGATGA | 0.00302
ATGATGGGTGA | 0
ATGATGGTGTA | 0.00485
ATGATGGTGTG | 0.00658
ATGATGGTTGA | 0.00283
ATGATGTGTGA | 0.0027

Variants of: B2
Test: as above
Conditions: with F1*subA RNA substrate (template-directed ligation), 42 °C
Method: as §1

Variant | fraction ligated
T23A | 0.215
T23A A24C | 0.0188
T23A A24G | 0.00909
T23A A24T | 0.0331
T23A A27C | 0.0462
T23A A27G | 0.234
T23A A27T | 0.488
T23A A29C | 0.15
T23A A29G | 0.189
T23A A29T | 0.156
T23A A30C | 0.126
T23A A30G | 0.358
T23A A30T | 0.132
T23A A31C | 0.181
T23A A31G | 0.264
T23A A31T | 0.325
T23A A35C | 0.00609
T23A A35G | 0.0122
T23A A35T | 0.0125
T23A A43C | 0.00617
T23A A43G | 0.00242
T23A A43T | 0.00536
T23A A44C | 0.0208
T23A A44G | 0.0455
T23A A44T | 0.0479

Variant | fraction ligated
T23A C26A | 0.00635
T23A C26G | 0.00512
T23A C26T | 0.0201
T23A G28A | 0.178
T23A G28C | 0.132
T23A G28T | 0.176
T23A G33A | 0.178
T23A G33C | 0.0701
T23A G33T | 0.0493
T23A G34A | 0.0227
T23A G34C | 0.00115
T23A G34T | 0.00436
T23A G37A | 0.00757
T23A G37C | 0.00499
T23A G37T | 0.00942
T23A G42A | 0.0065
T23A G42C | 0.00428
T23A G42T | 0.003
T23A T25A | 0.00503
T23A T25C | 0.0136
T23A T25G | 0.00615
T23A T32A | 0.00638
T23A T32C | 0.00262
T23A T32G | 0.000962
T23A T36A | 0.0114

Variant | fraction ligated
T23A T36C | 0.012
T23A T36G | 0.0346
T23C | 0.318
T23C A24C | 0.0187
T23C A24G | 0.0315
T23C A24T | 0.0194
T23C A27C | 0.133
T23C A27G | 0.354
T23C A27T | 0.595
T23C A29C | 0.254
T23C A29G | 0.277
T23C A29T | 0.288
T23C A30C | 0.21
T23C A30G | 0.391
T23C A30T | 0.221
T23C A31C | 0.328
T23C A31G | 0.392
T23C A31T | 0.517
T23C A35C | 0.00513
T23C A35G | 0.0141
T23C A35T | 0.00507
T23C A43C | 0.00429
T23C A43G | 0.00398
T23C A43T | 0.00662
T23C A44C | 0.0323

Variant | fraction ligated
T23C A44G | 0.0605
T23C A44T | 0.0534
T23C C26A | 0.006
T23C C26G | 0.00264
T23C C26T | 0.0218
T23C G28A | 0.242
T23C G28C | 0.224
T23C G28T | 0.326
T23C G33A | 0.304
T23C G33C | 0.147
T23C G33T | 0.0728
T23C G34A | 0.0166
T23C G34C | 0.0023
T23C G34T | 0.00428
T23C G37A | 0.00595
T23C G37C | 0.00507
T23C G37T | 0.0164
T23C G42A | 0.0247
T23C G42C | 0.00249
T23C G42T | 0.00449
T23C T25A | 0.0129
T23C T25C | 0.0306
T23C T25G | 0.0076
T23C T32A | 0.00196
T23C T32C | 0.0041

Variant | fraction ligated
T23C T32G | 0.00399
T23C T36A | 0.0123
T23C T36C | 0.00904
T23C T36G | 0.0318
T23G | 0.8
T23G A24C | 0.0996
T23G A24G | 0.00157
T23G A24T | 0.104
T23G A27C | 0.714
T23G A27G | 0.795
T23G A27T | 0.805
T23G A29C | 0.824
T23G A29G | 0.813
T23G A29T | 0.803
T23G A30C | 0.789
T23G A30G | 0.803
T23G A30T | 0.806
T23G A31C | 0.783
T23G A31G | 0.82
T23G A31T | 0.826
T23G A35C | 0.0185
T23G A35G | 0.247
T23G A35T | 0.031
T23G A43C | 0.0643
T23G A43G | 0.0673

Variant | fraction ligated
T23G A43T | 0.0898
T23G A44C | 0.693
T23G A44G | 0.764
T23G A44T | 0.792
T23G C26A | 0.123
T23G C26G | 0.0528
T23G C26T | 0.434
T23G G28A | 0.798
T23G G28C | 0.8
T23G G28T | 0.803
T23G G33A | 0.801
T23G G33C | 0.73
T23G G33T | 0.556
T23G G34A | 0.0854
T23G G34C | 0.00122
T23G G34T | 0.00441
T23G G37A | 0.00471
T23G G37C | 0.00547
T23G G37T | 0.00959
T23G G42A | 0.204
